Target: T1, RhaS-GB1201b (RhaS L201R-GB1basic) (UniProt P09377 1-278, L201R)
T1 sequence: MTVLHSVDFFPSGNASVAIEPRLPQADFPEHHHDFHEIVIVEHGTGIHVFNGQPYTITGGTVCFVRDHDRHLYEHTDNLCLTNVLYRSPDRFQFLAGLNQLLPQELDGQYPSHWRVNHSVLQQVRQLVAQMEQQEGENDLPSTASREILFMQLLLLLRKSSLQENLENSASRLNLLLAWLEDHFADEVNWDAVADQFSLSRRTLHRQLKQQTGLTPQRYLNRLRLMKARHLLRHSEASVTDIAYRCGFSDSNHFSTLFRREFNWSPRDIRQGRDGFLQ
Assay: EMSA

B1: rhaBAD RhaS site probe (oligos 3058/3288) (dsDNA)
DNA 1: ACGTTCATCTTTCCCTGGTTGCCAATGGCCCATTTTCCTGTCAGTAACGAGAAGGTCGCGAA
DNA 2: TTCGCGACCTTCTCGTTACTGACAGGAAAATGGGCCATTGGCAACCAGGGAAAGATGAACGT
  binding result: binds
